This passage reports β-gal activity results from PMC2132842 (The Journal of Cell Biology, 1998).

One test has as its target T1, GAL4/CAS (human, UniProt P55060 1-971).
T1 sequence (looked up): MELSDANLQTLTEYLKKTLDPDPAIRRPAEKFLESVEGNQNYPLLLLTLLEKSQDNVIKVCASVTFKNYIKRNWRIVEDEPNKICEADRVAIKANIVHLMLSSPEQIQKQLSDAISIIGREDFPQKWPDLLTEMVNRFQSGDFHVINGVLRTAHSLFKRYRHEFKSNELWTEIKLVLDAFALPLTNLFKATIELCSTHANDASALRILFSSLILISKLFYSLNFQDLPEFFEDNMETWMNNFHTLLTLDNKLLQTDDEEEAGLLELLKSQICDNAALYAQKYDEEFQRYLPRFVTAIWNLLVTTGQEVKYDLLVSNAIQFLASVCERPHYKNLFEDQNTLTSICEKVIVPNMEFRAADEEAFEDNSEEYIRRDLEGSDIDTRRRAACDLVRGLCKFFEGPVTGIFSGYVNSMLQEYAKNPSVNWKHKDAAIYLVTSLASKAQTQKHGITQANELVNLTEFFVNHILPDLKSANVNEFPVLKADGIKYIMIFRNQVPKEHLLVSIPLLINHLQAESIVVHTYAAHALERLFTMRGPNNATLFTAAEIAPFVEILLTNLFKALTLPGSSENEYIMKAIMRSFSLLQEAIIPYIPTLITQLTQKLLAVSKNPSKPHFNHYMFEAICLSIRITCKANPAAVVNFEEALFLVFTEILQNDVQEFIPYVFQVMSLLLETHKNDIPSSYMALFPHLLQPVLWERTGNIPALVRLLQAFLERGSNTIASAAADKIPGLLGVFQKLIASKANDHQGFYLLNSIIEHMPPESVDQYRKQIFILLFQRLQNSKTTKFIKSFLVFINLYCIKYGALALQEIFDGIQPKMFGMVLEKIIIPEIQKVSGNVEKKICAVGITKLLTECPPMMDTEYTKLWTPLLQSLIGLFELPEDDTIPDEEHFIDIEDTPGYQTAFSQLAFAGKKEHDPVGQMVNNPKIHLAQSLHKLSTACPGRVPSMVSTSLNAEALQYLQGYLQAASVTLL
Briefly: two-hybrid.

The target of the next test is GAL4/Imp βΔ1/261 (human, UniProt Q14974 262-876). Briefly: two-hybrid.
GAL4/Imp βΔ1/261, sequence (Q14974 262-876, stated change not applied): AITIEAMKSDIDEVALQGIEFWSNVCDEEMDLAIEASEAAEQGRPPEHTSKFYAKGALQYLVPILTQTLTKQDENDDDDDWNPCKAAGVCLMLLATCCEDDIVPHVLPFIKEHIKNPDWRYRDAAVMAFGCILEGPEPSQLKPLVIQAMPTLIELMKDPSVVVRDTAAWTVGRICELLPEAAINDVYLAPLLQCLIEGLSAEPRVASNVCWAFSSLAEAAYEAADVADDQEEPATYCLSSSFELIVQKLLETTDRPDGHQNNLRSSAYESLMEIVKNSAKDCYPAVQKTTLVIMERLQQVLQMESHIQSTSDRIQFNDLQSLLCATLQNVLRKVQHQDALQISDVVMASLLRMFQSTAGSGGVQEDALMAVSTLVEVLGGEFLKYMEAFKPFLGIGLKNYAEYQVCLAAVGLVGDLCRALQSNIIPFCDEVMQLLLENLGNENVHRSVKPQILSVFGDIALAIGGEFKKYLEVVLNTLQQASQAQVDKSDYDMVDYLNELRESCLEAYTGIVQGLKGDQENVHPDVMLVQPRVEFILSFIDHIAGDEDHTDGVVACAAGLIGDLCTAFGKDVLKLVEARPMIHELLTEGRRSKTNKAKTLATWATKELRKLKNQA

B1: VP16/Imp α4 (natural protein, human, UniProt O00505 1-521, looked up)
chain: MAENPSLENHRIKSFKNKGRDVETMRRHRNEVTVELRKNKRDEHLLKKRNVPQEESLEDSDVDADFKAQNVTLEAILQNATSDNPVVQLSAVQAARKLLSSDRNPPIDDLIKSGILPILVKCLERDDNPSLQFEAAWALTNIASGTSAQTQAVVQSNAVPLFLRLLRSPHQNVCEQAVWALGNIIGDGPQCRDYVISLGVVKPLLSFISPSIPITFLRNVTWVIVNLCRNKDPPPPMETVQEILPALCVLIYHTDINILVDTVWALSYLTDGGNEQIQMVIDSGVVPFLVPLLSHQEVKVQTAALRAVGNIVTGTDEQTQVVLNCDVLSHFPNLLSHPKEKINKEAVWFLSNITAGNQQQVQAVIDAGLIPMIIHQLAKGDFGTQKEAAWAISNLTISGRKDQVEYLVQQNVIPPFCNLLSVKDSQVVQVVLDGLKNILIMAGDEASTIAEIIEECGGLEKIEVLQQHENEDIYKLAFEIIDQYFSGDDIDEDPCLIPEATQGGTYNFDPTANLQTKEFNF
B1: the β-gal activity is 174 mOD/ml with GAL4/CAS and 1850 mOD/ml with GAL4/Imp βΔ1/261.

B2: VP16/Imp α1 (natural protein)
chain: not shown
Regarding B2, the figures for the β-gal activity in the test with GAL4/CAS and with GAL4/Imp βΔ1/261 were 101 mOD/ml and 2350 mOD/ml, respectively.
